Laboratory results taken from patent US20220010004A1 (published 2022).

T1: tau peptide 270-300 (human)
T1 construct: Synthetic; Built from 2N4R numbering
T1 peptide: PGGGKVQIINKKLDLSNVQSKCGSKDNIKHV

T2: tau peptide 301-330 (human)
T2 construct: Synthetic; Built from 2N4R numbering
T2 peptide: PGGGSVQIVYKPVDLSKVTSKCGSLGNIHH

T3: tau peptide 240-270 (human)
T3 construct: Synthetic; Built from 2N4R numbering
T3 peptide: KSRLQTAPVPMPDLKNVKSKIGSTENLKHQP

B1: monoclonal antibody DC8E8 (antibody, mouse IgG1, V domains shown)
VH: QVQLQQSGPELVKPGTSVKMPCKASGYIFTDYVISWVKQRTGQGLEWIGEIFPRSGSTYYNEKFKGKATLTADKSSNTAYMQLSSVTSEDSAVYFCARDYYGTSFAMDYWGQGTSVTVSS
VL: DIVMSQSPSSLAVSAGEKVTMSCKSSQSLLNSRTRKNYLAWYQQKPGQSPKLLIYWASTRESGVPDRFTGSGSGTDFTLTISSVQAEDLAVYYCKQSFYLRTFGGGTKLDIK
notes: Mouse IgG1 with kappa light chain, from hybridoma ATCC PTA-11994; also called mAb DC8E8
B2: peptide NIKAVPGGGS (peptide)
peptide: NIKAVPGGGS
notes: Tau-derived peptide with histidine 299 changed to alanine

Tests used:
[1] = target: T4, human full-length tau isoform 2N4R (human, UniProt P10636 1-758); experiment: SPR (Biacore), DC8E8 captured, tau injected
T4 construct: Recombinant, E. coli; also called tau 2N4R; tau441

[2] = target: T5, tauΔ(1-150; 392-441)/4R (human, UniProt P10636 468-708); experiment: SPR (Biacore), DC8E8 captured, tau injected
T5 construct: Also the transgene of SHR72 rats; also called tau 151-391/4R; misdisordered tau

[3] = target: T1, tau peptide 270-300; experiment: ELISA, coated peptide (5 µg/ml), hybridoma supernate
[4] = target: T2, tau peptide 301-330; experiment: as above
[5] = target: T3, tau peptide 240-270; experiment: as above
[6] = target: tauΔ222-427 (human, UniProt P10636 1-758); experiment: ELISA, coated tau (5 µg/ml), hybridoma supernate
[7] = target: T6, tauΔ228-441 (human, UniProt P10636 1-544); experiment: ELISA, coated tau (5 µg/ml), hybridoma supernate
T6 construct: also called C-terminally truncated tau protein

[8] = target: tauΔ306-400 (human, UniProt P10636 1-758); experiment: ELISA, coated tau (5 µg/ml), hybridoma supernate
[9] = target: tauΔ283-441 (human, UniProt P10636 1-599); experiment: ELISA, coated tau (5 µg/ml), hybridoma supernate
[10] = target: tauΔ300-312 (human, UniProt P10636 1-758); experiment: ELISA, coated tau (5 µg/ml), hybridoma supernate
[11] = target: tauΔ137-441 (human, UniProt P10636 1-387); experiment: ELISA, coated tau (5 µg/ml), hybridoma supernate
[12] = target: tauΔ257-400 (human, UniProt P10636 1-758); experiment: ELISA, coated tau (5 µg/ml), hybridoma supernate
[13] = target: B1; experiment: competition ELISA; competitor: coated tauΔ(1-150;392-441)/4R
[14] = target: B1; experiment: competition ELISA against coated tauΔ(1-150;392-441)/4R

Sequence of tauΔ257-400 (P10636 other isoform, or with tags, fused parts or gaps mutant): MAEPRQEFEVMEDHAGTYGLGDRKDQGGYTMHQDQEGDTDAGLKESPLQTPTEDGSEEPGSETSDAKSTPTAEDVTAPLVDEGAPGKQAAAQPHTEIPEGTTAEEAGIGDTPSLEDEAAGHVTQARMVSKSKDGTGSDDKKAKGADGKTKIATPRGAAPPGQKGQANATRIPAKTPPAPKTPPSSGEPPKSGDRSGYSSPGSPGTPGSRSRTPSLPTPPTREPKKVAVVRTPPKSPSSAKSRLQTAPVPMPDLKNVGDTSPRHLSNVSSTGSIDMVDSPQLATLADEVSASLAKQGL
T5 sequence (P10636 other isoform, or with tags, fused parts or gaps mutant limits assumed): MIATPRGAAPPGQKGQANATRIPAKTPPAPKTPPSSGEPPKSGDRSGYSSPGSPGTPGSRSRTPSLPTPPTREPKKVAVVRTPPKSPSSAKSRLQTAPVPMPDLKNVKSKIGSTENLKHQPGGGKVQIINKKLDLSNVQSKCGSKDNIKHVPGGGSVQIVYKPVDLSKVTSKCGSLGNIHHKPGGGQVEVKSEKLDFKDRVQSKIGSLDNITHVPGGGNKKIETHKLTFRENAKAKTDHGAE
T4 sequence (P10636 other isoform, or with tags, fused parts or gaps limits assumed): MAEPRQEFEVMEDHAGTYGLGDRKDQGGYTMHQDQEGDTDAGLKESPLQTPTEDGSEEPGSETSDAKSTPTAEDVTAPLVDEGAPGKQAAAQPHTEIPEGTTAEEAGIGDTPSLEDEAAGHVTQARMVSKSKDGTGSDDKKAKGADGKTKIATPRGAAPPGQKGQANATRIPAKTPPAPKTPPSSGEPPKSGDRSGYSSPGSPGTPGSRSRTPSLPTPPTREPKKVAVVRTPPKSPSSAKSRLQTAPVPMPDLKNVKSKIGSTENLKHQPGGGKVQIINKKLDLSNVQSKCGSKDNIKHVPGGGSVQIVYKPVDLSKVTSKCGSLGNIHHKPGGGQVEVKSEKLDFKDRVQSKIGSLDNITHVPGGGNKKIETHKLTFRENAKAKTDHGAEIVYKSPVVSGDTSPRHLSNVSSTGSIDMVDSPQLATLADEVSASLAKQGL
Sequence of tauΔ306-400 (P10636 other isoform, or with tags, fused parts or gaps mutant): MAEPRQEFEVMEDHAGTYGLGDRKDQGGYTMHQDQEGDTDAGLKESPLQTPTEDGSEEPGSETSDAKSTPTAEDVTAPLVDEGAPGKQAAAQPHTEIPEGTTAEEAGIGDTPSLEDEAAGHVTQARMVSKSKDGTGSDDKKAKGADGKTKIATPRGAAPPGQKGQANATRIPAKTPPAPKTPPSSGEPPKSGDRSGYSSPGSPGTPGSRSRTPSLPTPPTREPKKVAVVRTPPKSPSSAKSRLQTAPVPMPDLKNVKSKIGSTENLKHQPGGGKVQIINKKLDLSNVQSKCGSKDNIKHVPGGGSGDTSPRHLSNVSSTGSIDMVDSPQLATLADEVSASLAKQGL
Sequence of tauΔ283-441 (P10636 other isoform, or with tags, fused parts or gaps mutant): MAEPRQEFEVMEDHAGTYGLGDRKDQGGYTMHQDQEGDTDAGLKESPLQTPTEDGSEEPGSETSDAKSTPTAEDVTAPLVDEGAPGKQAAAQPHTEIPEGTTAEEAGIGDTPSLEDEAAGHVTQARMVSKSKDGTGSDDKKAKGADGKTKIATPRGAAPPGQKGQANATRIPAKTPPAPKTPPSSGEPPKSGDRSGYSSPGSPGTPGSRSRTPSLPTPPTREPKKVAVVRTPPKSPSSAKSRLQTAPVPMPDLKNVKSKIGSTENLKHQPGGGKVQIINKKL
T6 sequence (P10636 other isoform, or with tags, fused parts or gaps mutant): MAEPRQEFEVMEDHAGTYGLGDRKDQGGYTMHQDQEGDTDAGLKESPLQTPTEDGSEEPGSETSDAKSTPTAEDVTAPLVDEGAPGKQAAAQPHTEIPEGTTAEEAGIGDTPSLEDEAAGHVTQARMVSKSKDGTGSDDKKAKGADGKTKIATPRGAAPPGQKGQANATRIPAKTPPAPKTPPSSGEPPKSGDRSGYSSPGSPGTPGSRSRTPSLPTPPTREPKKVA
Sequence of tauΔ137-441 (P10636 other isoform, or with tags, fused parts or gaps mutant): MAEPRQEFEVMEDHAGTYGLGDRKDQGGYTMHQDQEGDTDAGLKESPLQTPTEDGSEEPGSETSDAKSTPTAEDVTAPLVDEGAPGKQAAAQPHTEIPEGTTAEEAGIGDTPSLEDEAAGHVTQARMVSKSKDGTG
Sequence of tauΔ300-312 (P10636 other isoform, or with tags, fused parts or gaps mutant): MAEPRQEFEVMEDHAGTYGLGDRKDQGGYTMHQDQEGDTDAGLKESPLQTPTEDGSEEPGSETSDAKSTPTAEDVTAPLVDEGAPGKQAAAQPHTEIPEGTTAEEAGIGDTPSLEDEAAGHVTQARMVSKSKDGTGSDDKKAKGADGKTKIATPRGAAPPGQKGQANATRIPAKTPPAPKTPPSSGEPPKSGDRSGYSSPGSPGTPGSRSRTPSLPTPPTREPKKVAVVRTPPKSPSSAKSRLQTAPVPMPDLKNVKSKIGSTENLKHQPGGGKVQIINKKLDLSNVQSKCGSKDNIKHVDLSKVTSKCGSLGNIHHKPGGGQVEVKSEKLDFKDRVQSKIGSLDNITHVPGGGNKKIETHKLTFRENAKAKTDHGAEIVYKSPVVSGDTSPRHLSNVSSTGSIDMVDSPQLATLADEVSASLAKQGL
Sequence of tauΔ222-427 (P10636 other isoform, or with tags, fused parts or gaps mutant): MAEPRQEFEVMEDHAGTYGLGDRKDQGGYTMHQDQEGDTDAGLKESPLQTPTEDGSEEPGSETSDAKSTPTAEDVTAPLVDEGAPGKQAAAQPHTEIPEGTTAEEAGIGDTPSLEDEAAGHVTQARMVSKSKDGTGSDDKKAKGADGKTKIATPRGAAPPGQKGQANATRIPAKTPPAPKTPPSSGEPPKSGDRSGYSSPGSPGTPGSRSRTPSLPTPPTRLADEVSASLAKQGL

With B1 the “fold lower kOFF of four-repeat tau species” value [1] was 10 fold, the “fold lower kOFF of four-repeat tau species” value [2] was 10 fold and the binding result [3] was “no binding”. B1: no binding [4]; no binding [5]; no binding [6]. B1: no binding [7]; no binding [8]; no binding [9]. B1: no binding [10]; no binding [11]; no binding [12].

DNAKHVPGGGS (Alanine mutant of tau 295-305) [peptide DNAKHVPGGGS]: binds [13].

NIKHVPGGGS [peptide NIKHVPGGGS]: binds [13].

B2: no binding (tested: 40 µM) [14].

HHKPGGG [tau peptide HHKPGGG]: binds [13].

IKHVPGGGS [peptide IKHVPGGGS]: binds [13].

QPGGG [tau peptide QPGGG]: no binding [14].

VPGGG [tau peptide VPGGG]: no binding [14].

HQPGGG [tau peptide HQPGGG]: binds [13].

HKPGGG [tau peptide HKPGGG]: binds [13].

HVPGGG [tau peptide HVPGGG]: binds [13].

ANIKHVPGGGS (Alanine mutant of tau 295-305) [peptide ANIKHVPGGGS]: binds [13].

GWSIHSPGGGSC (Designed peptide) [designer therapeutic epitope 1 GWSIHSPGGGSC]: binds [13].

DNIAHVPGGGS (Alanine mutant of tau 295-305) [peptide DNIAHVPGGGS]: binds [13].

In the case of SVFQHLPGGGSC (Designed peptide) [designer therapeutic epitope 2 SVFQHLPGGGSC], the “affinity for DC8E8 relative to tauΔ(1-150; 392-441)4R” value [13] is reported as > 10 fold.

DNIKHVPGGGSVQIVYKPV (also called 19-mer) [tau peptide DNIKHVPGGGSVQIVYKPV]: binds [13].

KHVPGGG [tau peptide KHVPGGG]: binds [13].

KHQPGGG [tau peptide KHQPGGG]: binds [13].

THVPGGG [tau peptide THVPGGG]: binds [13].

HQPGG [tau peptide HQPGG]: no binding [14].

HVPGG [tau peptide HVPGG]: no binding [14].

ENLKHQPGGGKVQIINKKLDLSNVQSKCGSKDNIKHVPGGGS (also called 42-mer) [tau peptide ENLKHQPGGGKVQIINKKLDLSNVQSKCGSKDNIKHVPGGGS]: binds [13].

HVPGGGSVQ [peptide HVPGGGSVQ]: binds [13].

DNIKAVPGGGS (Alanine mutant (H299A) of tau 295-305) [peptide DNIKAVPGGGS]: no binding (tested: 160 µM) [14].

DNIKHAPGGGS (Alanine mutant of tau 295-305) [peptide DNIKHAPGGGS]: binds [13].

DAIKHVPGGGS (Alanine mutant of tau 295-305) [peptide DAIKHVPGGGS]: binds [13].

TENLKHQPGGGK [tau peptide TENLKHQPGGGK]: binds [13].

KHVPGGGSV [peptide KHVPGGGSV]: binds [13].
